The values below come from patent publication US20190169289A1 (Scripps Research, published 2019).

Where two headings read alike, the source gives them in different places.

In test [1] the target is T1, CD22 (UniProt P20273 20-847, limits assumed). Nature of the test: cell-based or functional assay.
In test [2] the target is T1, CD22. Put plainly: cell-based or functional assay. The source holds these as a separate data set.
The target of test [3] is T2, anti-GCN4 (52SR4 scFv) sCAR with IgG4m hinge.
T2 construct: disulfide dimer by western blot; also called short-dimeric sCAR; IgG4m sCAR
T2 chain: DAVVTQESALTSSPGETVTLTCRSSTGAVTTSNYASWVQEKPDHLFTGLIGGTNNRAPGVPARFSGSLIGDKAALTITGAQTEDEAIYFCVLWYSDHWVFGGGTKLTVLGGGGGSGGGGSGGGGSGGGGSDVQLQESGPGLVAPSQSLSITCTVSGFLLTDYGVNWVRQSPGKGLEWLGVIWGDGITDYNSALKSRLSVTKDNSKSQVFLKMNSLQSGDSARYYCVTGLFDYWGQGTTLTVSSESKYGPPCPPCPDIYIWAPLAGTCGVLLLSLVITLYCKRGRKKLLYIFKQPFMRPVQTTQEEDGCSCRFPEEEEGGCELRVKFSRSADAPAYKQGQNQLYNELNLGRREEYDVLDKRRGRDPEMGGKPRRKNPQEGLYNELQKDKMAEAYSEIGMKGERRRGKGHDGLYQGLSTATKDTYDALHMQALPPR
Nature of the test: flow cytometry competition on CAR-T cells with the GCN4 CAR (SEQ ID NO. 74): 1 nM labelled GCN4 peptide (GCN4-AF488) as competitor, unlabelled peptide titrated, MFI of the labelled peptide read. (In general: Flow cytometry measures light scatter and fluorescence of single cells or particles in a stream.)
From the text: Un-labelled peptide binding efficiency was indirectly shown by measuring the mean fluorescence intensity (MFI) staining with the labelled peptide.
Cells were then washed twice with cold PBS to remove the free labelled peptide before being analyzed using the BD Accuri flow cytometer.

Test [4] deals with T1, CD22. Put plainly: cell-based or functional assay. The source holds these as a separate data set.
The target in test [5] is T1, CD22. Put plainly: cell-based or functional assay. This is another data set of the same source.
Test [6] addresses T1, CD22. Put plainly: cell-based or functional assay. This is another data set of the same source.
In test [7] the target is T1, CD22. Nature of the test: cell-based or functional assay. This is another data set of the same source.

B1: anti-CD22 (clone hLL2) Fab CTBV2 switch (2 GGGGS linker) (Fab)
light: DIQLTQSPSSLSASVGDRVTMSCKSSQSVLYSANHKNYLAWYQQKPGKAPKLLIYWASTRESGVPSRFSGSGSGTDFTFTISSLQPEDIATYYCHQYLSSWTFGGGTKLEIKRTVAAPSVFIFPPSDEQLKSGTASVVCLLNNFYPREAKVQWKVDNALQSGNSQESVTEQDSKDSTYSLSSTLTLSKADYEKHKVYACEVTHQGLSSPVTKSFNRGECGGGGSGGGGSNYHLENEVARLKKL
heavy: QVQLVQSGAEVKKPGSSVKVSCKASGYTFTSYWLHWVRQAPGQGLEWIGYINPRNDYTEYNQNFKDKATITADESTNTAYMELSSLRSEDTAFYFCARRDITTFYWGQGTTVTVSSARTKGPSVFPLAPSSKSTSGGTAALGCLVKDYFPEPVTVSWNSGALTSGVHTFPAVLQSSGLYSLSSVVTVPSSSLGTQTYICNVNHKPSNTKVDKKVEPKSCGGGGSGGGGSNYHLENEVARLKKL
Consider B1, for which, in the test with CD22 [1], the “cytotoxicity at 0.01 pM” value was 7.08, the “cytotoxicity at 0.1 pM” value was determined as 2.9, the “cytotoxicity at 10 pM” value worked out at 22.1 and the “cytotoxicity at 100 pM” value came out at 45.8. In the test with CD22 [1], the “cytotoxicity at 1000 pM” value was found to be 45.8 and the “cytotoxicity at 10000 pM” value came to 46. This molecule also yielded an EC50 of cytotoxicity with CD22 [2] of 0.0126 nM.

B2: Peptide 4: AAALENEVARLKKL (peptide)
peptide: AAALENEVARLKKL
With B2, in test [3], the binding result is recorded as “no binding (tested: 10^3 nM)”.

B3: Peptide 8: NYHLENEVARLAAA (peptide)
peptide: NYHLENEVARLAAA
B3: in test [3], the binding result was “binds”.

B4: Peptide 5: AAAAENEVARLKKL (peptide)
peptide: AAAAENEVARLKKL
Take B4: the binding result in test [3] is recorded as “no binding (tested: 10^3 nM)”.

B5: Peptide 6: NYHLENEVARLKKA (peptide)
peptide: NYHLENEVARLKKA
For B5, the binding result in test [3] is reported as “binds”.

B6: Peptide 7: NYHLENEVARLKAA (peptide)
peptide: NYHLENEVARLKAA
As to B6, the binding result in test [3] is “binds”.

B7: anti-CD22 (clone hLL2) Fab HCCT switch (Fab, V domains shown)
VH: QVQLVQSGAEVKKPGSSVKVSCKASGYTFTSYWLHWVRQAPGQGLEWIGYINPRNDYTEYNQNFKDKATITADESTNTAYMELSSLRSEDTAFYFCARRDITTFYWGQGTTVTVSS
VL: DIQLTQSPSSLSASVGDRVTMSCKSSQSVLYSANHKNYLAWYQQKPGKAPKLLIYWASTRESGVPSRFSGSGSGTDFTFTISSLQPEDIATYYCHQYLSSWTFGGGTKLEIKR
Regarding B7, the EC50 of cytotoxicity with CD22 [4] was 1.34 nM. In the test with CD22 [5], the “cytotoxicity at 0.01 pM” value worked out at 1.3, the “cytotoxicity at 0.1 pM” value was 6.05, the “cytotoxicity at 1 pM” value came out at 7.67 and the “cytotoxicity at 10 pM” value was found to be 8.27. For the same molecule, in the test with CD22 [5], the “cytotoxicity at 100 pM” value was 7.35, the “cytotoxicity at 1000 pM” value was determined as 25 and the “cytotoxicity at 10000 pM” value was found to be 45.1.

B8: anti-CD22 (clone hLL2) Fab NTBV switch (Fab, V domains shown)
VH: B7 VH
VL: B7 VL
B8 came in with an EC50 of cytotoxicity with CD22 [4] of 0.135 nM. Also, in the test with CD22 [5], the “cytotoxicity at 0.01 pM” value is 1.52, the “cytotoxicity at 0.1 pM” value came out at 2.19, the “cytotoxicity at 1 pM” value amounted to 4.2 and the “cytotoxicity at 10 pM” value is 2.07. Besides, in the test with CD22 [5], the “cytotoxicity at 1000 pM” value is -2.07 and the “cytotoxicity at 10000 pM” value worked out at 1.5.

B9: anti-CD22 (clone hLL2) Fab LCNT switch (Fab, V domains shown)
VH: B7 VH
VL: B7 VL
Molecule B9 gave an EC50 of cytotoxicity in the test with CD22 [4] of 6.56 nM.

B10: anti-CD22 (clone hLL2) IgG HCCT switch (antibody)
light: DIQLTQSPSSLSASVGDRVTMSCKSSQSVLYSANHKNYLAWYQQKPGKAPKLLIYWASTRESGVPSRFSGSGSGTDFTFTISSLQPEDIATYYCHQYLSSWTFGGGTKLEIKRTVAAPSVFIFPPSDEQLKSGTASVVCLLNNFYPREAKVQWKVDNALQSGNSQESVTEQDSKDSTYSLSSTLTLSKADYEKHKVYACEVTHQGLSSPVTKSFNRGEC
heavy: QVQLVQSGAEVKKPGSSVKVSCKASGYTFTSYWLHWVRQAPGQGLEWIGYINPRNDYTEYNQNFKDKATITADESTNTAYMELSSLRSEDTAFYFCARRDITTFYWGQGTTVTVSSARTKGPSVFPLAPSSKSTSGGTAALGCLVKDYFPEPVTVSWNSGALTSGVHTFPAVLQSSGLYSLSSVVTVPSSSLGTQTYICNVNHKPSNTKVDKKVEPKSCDKTHTCPPCPAPPVAGPSVFLFPPKPKDTLMISRTPEVTCVVVDVSHEDPEVKFNWYVDGVEVHNAKTKPREEQYNSTYRVVSVLTVLHQDWLNGKEYKCKVSNKGLPSSIEKTISKAKGQPREPQVYTLPPSRDELTKNQVSLTCLVKGFYPSDIAVEWESNGQPENNYKTTPPVLDSDGSFFLYSKLTVDKSRWQQGNVFSCSVMHEALHNHYTQKSLSLSPGKGGGGSNYHLENEVARLKKL
B10 registered an EC50 of cytotoxicity in the test with CD22 [6] of 0.0153 nM. In the test with CD22 [7], the “cytotoxicity at 0.06 pM” value is 0.25, the “cytotoxicity at 0.30 pM” value is -1.05, the “cytotoxicity at 1.52 pM” value is -4.45 and the “cytotoxicity at 7.62 pM” value stood at 8.18. In the test with CD22 [7], the “cytotoxicity at 38.10 pM” value was 20.9, the “cytotoxicity at 190.48 pM” value is 31.8 and the “cytotoxicity at 4762.00 pM” value was found to be 24.1.

B11: anti-CD22 (clone hLL2) IgG LCCT switch (antibody)
light: DIQLTQSPSSLSASVGDRVTMSCKSSQSVLYSANHKNYLAWYQQKPGKAPKLLIYWASTRESGVPSRFSGSGSGTDFTFTISSLQPEDIATYYCHQYLSSWTFGGGTKLEIKRTVAAPSVFIFPPSDEQLKSGTASVVCLLNNFYPREAKVQWKVDNALQSGNSQESVTEQDSKDSTYSLSSTLTLSKADYEKHKVYACEVTHQGLSSPVTKSFNRGECGGGGSNYHLENEVARLKKL
heavy: QVQLVQSGAEVKKPGSSVKVSCKASGYTFTSYWLHWVRQAPGQGLEWIGYINPRNDYTEYNQNFKDKATITADESTNTAYMELSSLRSEDTAFYFCARRDITTFYWGQGTTVTVSSARTKGPSVFPLAPSSKSTSGGTAALGCLVKDYFPEPVTVSWNSGALTSGVHTFPAVLQSSGLYSLSSVVTVPSSSLGTQTYICNVNHKPSNTKVDKKVEPKSCDKTHTCPPCPAPPVAGPSVFLFPPKPKDTLMISRTPEVTCVVVDVSHEDPEVKFNWYVDGVEVHNAKTKPREEQYNSTYRVVSVLTVLHQDWLNGKEYKCKVSNKGLPSSIEKTISKAKGQPREPQVYTLPPSRDELTKNQVSLTCLVKGFYPSDIAVEWESNGQPENNYKTTPPVLDSDGSFFLYSKLTVDKSRWQQGNVFSCSVMHEALHNHYTQKSLSLSPGK
Turning to B11, the EC50 of cytotoxicity with CD22 [6] came out at 0.0269 nM. Also, in the test with CD22 [7], the “cytotoxicity at 0.06 pM” value was -2.8, the “cytotoxicity at 0.30 pM” value is -7.88, the “cytotoxicity at 1.52 pM” value is -6.59 and the “cytotoxicity at 7.62 pM” value was 0.95. For the same molecule, in the test with CD22 [7], the “cytotoxicity at 38.10 pM” value turned out to be 14.1, the “cytotoxicity at 190.48 pM” value was determined as 24.4, the “cytotoxicity at 952.40 pM” value stood at 25.4 and the “cytotoxicity at 4762.00 pM” value is 28.5.

B12: anti-CD22 (clone hLL2) IgG CTBV switch (antibody)
light: B11 light
heavy: B10 heavy
On to B12, for which, in the test with CD22 [6], the EC50 of cytotoxicity was 0.0347 nM. In addition, in the test with CD22 [7], the “cytotoxicity at 0.06 pM” value is 4.45, the “cytotoxicity at 0.30 pM” value is -3.82, the “cytotoxicity at 1.52 pM” value worked out at 5.34 and the “cytotoxicity at 7.62 pM” value worked out at 7.92. In the test with CD22 [7], the “cytotoxicity at 190.48 pM” value was determined as 29.8, the “cytotoxicity at 952.40 pM” value came to 28.6 and the “cytotoxicity at 4762.00 pM” value came out at 38.

B13: anti-CD22 (clone hLL2) Fab LCCT switch (Fab)
light: B11 light
heavy: QVQLVQSGAEVKKPGSSVKVSCKASGYTFTSYWLHWVRQAPGQGLEWIGYINPRNDYTEYNQNFKDKATITADESTNTAYMELSSLRSEDTAFYFCARRDITTFYWGQGTTVTVSSARTKGPSVFPLAPSSKSTSGGTAALGCLVKDYFPEPVTVSWNSGALTSGVHTFPAVLQSSGLYSLSSVVTVPSSSLGTQTYICNVNHKPSNTKVDKKVEPKSC
Take B13: the EC50 of cytotoxicity with CD22 [4] is 0.132 nM. Also, in the test with CD22 [5], the “cytotoxicity at 0.01 pM” value was -2.13, the “cytotoxicity at 0.1 pM” value is -0.84, the “cytotoxicity at 1 pM” value is -0.01 and the “cytotoxicity at 10 pM” value turned out to be 4.8. Besides, in the test with CD22 [5], the “cytotoxicity at 100 pM” value was 23.8, the “cytotoxicity at 1000 pM” value worked out at 49.6 and the “cytotoxicity at 10000 pM” value came out at 56.5.
